The source of these data is article PMC12414692.

In experiment [1] the target is hNaV1.5 ΔKPQ (deletion of lysine, proline and glutamine at positions 1505–1507) (human) (UniProt Q14524).
Experiment [2] deals with hNaV1.5 (human voltage-activated sodium channel alpha subunit NaV1.5, wild type) (human) (UniProt Q14524).

B1: β4 peptide (derived from Homo sapiens sodium channel β4 subunit) (peptide)
peptide: KKLITFILKKTREK
The molecule B1 yielded a normalized INaR peak current, whole-cell voltage clamp of HEK293T cells, 30 μM β4 peptide in the pipette, against wild-type hNaV1.5 with the peptide (fold (against wild type with β4 peptide)) in experiment [1] of 2. For the same molecule, the current availability at pulse III (0 mV) after conditioning pulses from −20 to 90 mV and 5 ms at −100 mV, 30 μM β4 peptide in the pipette in experiment [2] amounted to 1.5 fold.
